Reference: publication PMC546141
Substitutions are numbered along the chain they refer to. Names and notes keep the numbering of the source.

T1: mPrrp-2xRBD (mouse, UniProt Q9JII5 1-201)
T1 sequence: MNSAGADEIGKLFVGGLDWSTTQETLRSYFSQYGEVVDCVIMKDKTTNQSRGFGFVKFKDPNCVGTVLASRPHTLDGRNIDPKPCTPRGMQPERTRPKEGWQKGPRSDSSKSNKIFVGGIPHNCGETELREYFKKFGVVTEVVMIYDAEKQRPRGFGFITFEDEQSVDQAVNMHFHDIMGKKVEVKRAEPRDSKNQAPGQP

B1: S-13 26-73 U52C (structured_RNA)
RNA: GGCAUAGCCAAAUAGUUUGUGGCCUUAGCUUAGUAUAGCUGCGGGCUAUGGGAUC
B2: S-13 26-73 U53C (structured_RNA)
RNA: B1 RNA with C29U, U30C

Target: T1, mPrrp-2xRBD
Test: EMSA

Binder | Kd [nM]
B1 | ~55
B2 | ~75
